{
  "source": "paper PMC6952060",
  "biological_target": "Sulfolobus acidocaldarius soluble FlaF (sFlaF) (Sulfolobus acidocaldarius)",
  "assay": "SEC",
  "data": [
    {"substance": "Sulfolobus acidocaldarius soluble FlaF (sFlaF) (domain or fragment)", "values": [
      {"measurement": "stoichiometry N", "result": 2}
    ]}
  ]
}
